From patent US20230125550A1 (ARCELLX, published 2023)
Positions count from the first letter of the chain named.

T1: recombinant human CD123-Fc (human, UniProt P26951 19-305)
T1 construct: not shown: Fc part of CD123-Fc
T1 sequence: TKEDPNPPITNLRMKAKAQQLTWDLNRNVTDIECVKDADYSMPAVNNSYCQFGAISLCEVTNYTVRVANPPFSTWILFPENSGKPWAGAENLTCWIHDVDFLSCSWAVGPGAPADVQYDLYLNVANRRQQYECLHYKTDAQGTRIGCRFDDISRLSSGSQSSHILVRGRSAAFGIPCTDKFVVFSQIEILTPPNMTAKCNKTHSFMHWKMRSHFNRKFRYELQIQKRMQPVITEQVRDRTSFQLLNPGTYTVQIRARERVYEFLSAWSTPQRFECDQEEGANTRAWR

B1: SEQ ID NO 653 (designed binder)
chain: MGSWEEFYYRLHAIDNRLWALGGSEAELAYFEWHIADFELELQDYKGKGNPEVEALSEEATAIFEELWAYRHN
B2: SEQ ID NO 654 (designed binder)
chain: MGSWREFHDRLFAIDGRLWALGGSEAELANFEWDIADFEFELQDYKGKGNPEVEALSWEADAIMQELGAYRHN
B3: SEQ ID NO 655 (designed binder)
chain: MGSWEEFDERLWAISDRLWALGGSEAELAYFEGEIAYFEQNLQTYKGKGNPEVEALQTEALAIDTELWAYRHN
B4: SEQ ID NO 656 (designed binder)
chain: MGSWEEFEQRLWAIDDRLWALGGSEAELAFFEYEIAEFEMDLQWYKGKGNPEVEALFYEAHAINEELWAYRHN
B5: SEQ ID NO 657 (designed binder)
chain: MGSWDEFHQRLAAIGDRLWALGGSEAELAYFEWEIATFEWDLQVYKGKGNPEVEALYFEATAIDEELMAYRHN
B6: SEQ ID NO 658 (designed binder)
chain: MGSWVEFEYRLDAISDRLWALGGSEAELAFFENEIASFESDLQFYKGKGNPEVEALMFEAEAIDDELHAYRHN
B7: SEQ ID NO 659 (designed binder)
chain: MGSWDEFDTRLDAIFSRLYALGGSEAELAMFEGEIAEFEGSLQHYKGKGNPEVEALDFEAHAIDEELWAYRHN
B8: SEQ ID NO 660 (designed binder)
chain: MGSWHEFDDRLDAIMSRLDALGGSEAELATFEAEIATFEFVLQLYKGKGNPEVEALLAEAYAIDWELEAYRHN
B9: SEQ ID NO 661 (designed binder)
chain: MGSWYEFFDRLDAIYDRLYALGGSEAELASFEAQIAEFEVELQSYKGKGNPEVEALEWEAWAIDEELYAYRHN
B10: SEQ ID NO 662 (designed binder)
chain: MGSWFEFLYRLDAIEDRLWALGGSEAELAEFEQEIAKFESELQSYKGKGNPEVEALEWEAHAIDMELEAYRHN
B11: SEQ ID NO 663 (designed binder)
chain: MGSWLEFEDRLVAIDHRLFALGGSEAELAEFEEEIALFESYLQDYKGKGNPEVEALNWEADAIHAELYAYRHN
B12: SEQ ID NO 664 (designed binder)
chain: MGSWYEFESRLDAIVDRLWALGGSEAELAEFEYEIAKFEWELQDYKGKGNPEVEALNWEAGAIEFELYAYRHN
B13: SEQ ID NO 665 (designed binder)
chain: MGSWYEFEDRLDAILYRLLALGGSEAELAWFERDIAFFESELQWYKGKGNPEVEALEWEAMAIDDELFAYRHN
B14: SEQ ID NO 666 (designed binder)
chain: MGSWGEFMDRLEAIDYRLWALGGSEAELAWFESDIAEFEQELQMYKGKGNPEVEALWDEAMAIRDELFAYRHN
B15: SEQ ID NO 667 (designed binder)
chain: MGSWEEFDDRLDAIEHRLWALGGSEAELADFEGSIAAFESWLQVYKGKGNPEVEALEAEAEAIADELWAYRHN
B16: SEQ ID NO 668 (designed binder)
chain: MGSWYEFADRLDAIMDRLVALGGSEAELAYFEWEIAAFEEFLQMYKGKGNPEVEALDEEAEAIKDELMAYRHN
B17: SEQ ID NO 669 (designed binder)
chain: MGSWNEFWERLDAIEWRLFALGGSEAELAFFELDIAWFEEELQWYKGKGNPEVEALIFEAHAITLELDAYRHN
B18: SEQ ID NO 670 (designed binder)
chain: MGSWYEFDARLDAIEERLYALGGSEAELAAFEFEIAGFEEALQWYKGKGNPEVEALLKEAEAITDELYAYRHN
B19: SEQ ID NO 671 (designed binder)
chain: MGSWDEFSERLDAIWGRLEALGGSEAELATFEFHIAEFEHELQYYKGKGNPEVEALQGEAAAIINELYAYRHN
B20: SEQ ID NO 672 (designed binder)
chain: MGSWDEFWDRLDAIEDRLFALGGSEAELADFERVIAWFENDLQEYKGKGNPEVEALDNEADAIRIELHAYRHN
B21: SEQ ID NO 673 (designed binder)
chain: MGSWDEFDDRLEAIVDRLFALGGSEAELAMFEFEIAQFEHQLQYYKGKGNPEVEALRDEADAIWIELDAYRHN
B22: SEQ ID NO 674 (designed binder)
chain: MGSWEEFTIRLGAIYWRLFALGGSEAELANFEWFIAEFEYELQPYKGKGNPEVEALVIEANAIDGELQAYRHN
B23: SEQ ID NO 675 (designed binder)
chain: MGSWFEFEWRLDAIENRLNALGGSEAELAWFEYHIAAFEDSLQHYKGKGNPEVEALEWEAHAIQSELQAYRHN
B24: SEQ ID NO 712 (designed binder)
chain: MGSWIEFEDRLYAIEDRLWALGGSEAELAAFEKEIAAFESELQAYKGKGNPEVEFLRYEAAEIRYWLQAYRHN
B25: SEQ ID NO 676 (designed binder)
chain: MGSWYEFDDRLEAIWDRLGALGGSEAELAAFEKEIAAFESELQAYKGKGNPEVEWLRETAADIRAELQAYRHN
B26: SEQ ID NO 678 (designed binder)
chain: B24 chain with D9V, Y12D, E15W, W19F, F55Y, Y58D, E62D, Y65Q, W66S
B27: SEQ ID NO 679 (designed binder)
chain: B25 chain with Y5T, D9R, E12D, G19F, T59E, A65D, E66Y
B28: SEQ ID NO 680 (designed binder)
chain: B25 chain with Y5T, D9M, E12D, G19F, W55E, T59E, D62T, A65G, E66V
B29: SEQ ID NO 681 (designed binder)
chain: B24 chain with I5E, E8H, Y12M, D16T, F55W, E62D, Y65D, W66Y
B30: SEQ ID NO 682 (designed binder)
chain: B24 chain with I5V, E8R, Y12D, D16T, F55W, Y65M, W66V
B31: SEQ ID NO 683 (designed binder)
chain: B24 chain with I5M, E8I, Y12D, D16H, Y58E, Y65M, W66Y
B32: SEQ ID NO 684 (designed binder)
chain: B24 chain with I5T, E8V, D9W, Y12D, D16W, W19E, Y58E, Y65D
B33: SEQ ID NO 685 (designed binder)
chain: B24 chain with I5V, E8Y, D16V, W19L, Y58Q, Y65D
B34: SEQ ID NO 686 (designed binder)
chain: B24 chain with I5Y, E8Y, Y12D, D16W, F55W, Y58D, E62Q, Y65D, W66F
B35: SEQ ID NO 687 (designed binder)
chain: MGSWVEFYDRLDAIEHRLDALGGSEAELAAFEKEIAAFESELQAYKGKGNPEVEWLRDEAAFIRDMLQAYRHN
B36: SEQ ID NO 688 (designed binder)
chain: B24 chain with I5F, E8V, Y12T, E15Q, D16V, F55Y, Y58E, E62L, W66S
B37: SEQ ID NO 689 (designed binder)
chain: B35 chain with V5F, Y8L, H16E, D19W, D58E, F62V, M66S
B38: SEQ ID NO 690 (designed binder)
chain: B24 chain with I5Y, E8M, D9V, Y12D, D16E, W19F, Y58E, E62S, W66H
B39: SEQ ID NO 693 (designed binder)
chain: B35 chain with Y8E, D9Y, E15T, H16E, D19L, W55I, D58E, D65Q, M66W
B40: SEQ ID NO 694 (designed binder)
chain: B35 chain with V5W, Y8L, H16M, D19F, W55Y, D58E, F62L, D65N
B41: SEQ ID NO 695 (designed binder)
chain: B24 chain with I5W, Y12D, D16Y, W19F, Y58E, E62F, Y65I, W66F
B42: SEQ ID NO 696 (designed binder)
chain: MGSWWEFESRLDAIFMRLTALGGSEAELAAFEKEIAAFESELQAYKGKGNPEVEDLREDAAFIREFLQAYRHN
B43: SEQ ID NO 705 (designed binder)
chain: B24 chain with I5V, E8W, Y12W, F55H, Y58H, E59Y, E62D, Y65V
B44: SEQ ID NO 706 (designed binder)
chain: B24 chain with I5Y, E8A, Y12W, E59Y, E62D, Y65W, W66V
B45: SEQ ID NO 707 (designed binder)
chain: B24 chain with I5Y, D9E, W19Y, Y58Q, E62D, Y65L, W66M
B46: SEQ ID NO 708 (designed binder)
chain: B24 chain with I5T, D9W, W19M, Y58D, E62D, Y65Q, W66Y

Target: T1, recombinant human CD123-Fc
Experiment: phage ELISA, A450 target/A450 IgG1-Fc
How it was run: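 The ELISA ratio divides target absorbance by IgG1-Fc absorbance and averages this over all screened wells holding a given clone. Phage came from phagemid colonies picked from panning output and were rescued with VCSM13 helper phage in 96-well format. After coating with 1.3 microg/ml goat anti-human IgG1-Fc antibody, wells were loaded with 5 nM recombinant human target or IgG1-Fc, then with 50 microl phage diluted 5× in ELISA blocking buffer, and bound phage were read at 450 nm using HRP-conjugated anti-M13 antibody.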

**Q.** For B1, which ELISA_avg is on record?
**A.** 3 ratio

**Q.** For B2, which ELISA_avg is on record?
**A.** 5.6 ratio

**Q.** B3 was tested. Which ELISA_avg did it give?
**A.** 6.5 ratio

**Q.** B4 was tested. Which ELISA_avg did it give?
**A.** 5.7 ratio

**Q.** How did the ELISA_avg turn out when B5 was run?
**A.** 3.7 ratio

**Q.** For B6, which ELISA_avg is on record?
**A.** 6.5 ratio

**Q.** For B7, which ELISA_avg is on record?
**A.** 4 ratio

**Q.** For B8, which ELISA_avg is on record?
**A.** 7.7 ratio

**Q.** B9 was tested. Which ELISA_avg did it give?
**A.** 4.7 ratio

**Q.** B10 was tested. Which ELISA_avg did it give?
**A.** 6.6 ratio

**Q.** For B11, which ELISA_avg is on record?
**A.** 3.9 ratio

**Q.** B12 was tested. Which ELISA_avg did it give?
**A.** 5.1 ratio

**Q.** Which ELISA_avg does the source give for B13 here?
**A.** 4.3 ratio

**Q.** B14 was tested. Which ELISA_avg did it give?
**A.** 4.6 ratio

**Q.** B15 was tested. Which ELISA_avg did it give?
**A.** 4 ratio

**Q.** Which ELISA_avg does the source give for B16 here?
**A.** 3.3 ratio

**Q.** For B17, which ELISA_avg is on record?
**A.** 3 ratio

**Q.** B18 was tested. Which ELISA_avg did it give?
**A.** 8.9 ratio

**Q.** How did the ELISA_avg turn out when B19 was run?
**A.** 3.2 ratio

**Q.** B20 was tested. Which ELISA_avg did it give?
**A.** 3.9 ratio

**Q.** How did the ELISA_avg turn out when B21 was run?
**A.** 5.6 ratio

**Q.** B22 was tested. Which ELISA_avg did it give?
**A.** 3.3 ratio

**Q.** Which ELISA_avg does the source give for B23 here?
**A.** 3.3 ratio

**Q.** Which ELISA_avg does the source give for B24 here?
**A.** 4 ratio

**Q.** How did the ELISA_avg turn out when B25 was run?
**A.** 3.3 ratio

**Q.** For B26, which ELISA_avg is on record?
**A.** 4.2 ratio

**Q.** For B27, which ELISA_avg is on record?
**A.** 9.2 ratio

**Q.** For B28, which ELISA_avg is on record?
**A.** 3.1 ratio

**Q.** Which ELISA_avg does the source give for B29 here?
**A.** 4.3 ratio

**Q.** Which ELISA_avg does the source give for B30 here?
**A.** 4.2 ratio

**Q.** B31 was tested. Which ELISA_avg did it give?
**A.** 4.3 ratio

**Q.** With B32 as the binder, how does the ELISA_avg read?
**A.** 4.2 ratio

**Q.** How did the ELISA_avg turn out when B33 was run?
**A.** 5.8 ratio

**Q.** Which ELISA_avg does the source give for B34 here?
**A.** 6.2 ratio

**Q.** For B35, which ELISA_avg is on record?
**A.** 3.4 ratio

**Q.** With B36 as the binder, how does the ELISA_avg read?
**A.** 5.1 ratio

**Q.** With B37 as the binder, how does the ELISA_avg read?
**A.** 12.2 ratio

**Q.** How did the ELISA_avg turn out when B38 was run?
**A.** 4.1 ratio

**Q.** For B39, which ELISA_avg is on record?
**A.** 3.9 ratio

**Q.** B40 was tested. Which ELISA_avg did it give?
**A.** 9 ratio

**Q.** With B41 as the binder, how does the ELISA_avg read?
**A.** 4.9 ratio

**Q.** How did the ELISA_avg turn out when B42 was run?
**A.** 3.7 ratio

**Q.** For B43, which ELISA_avg is on record?
**A.** 4.5 ratio

**Q.** Which ELISA_avg does the source give for B44 here?
**A.** 4 ratio

**Q.** For B45, which ELISA_avg is on record?
**A.** 11.5 ratio

**Q.** How did the ELISA_avg turn out when B46 was run?
**A.** 4.2 ratio
